One block for each substance: values may come before it.
What was measured:
hMC5-R (human) [1] = target: hMC5-R (human) (UniProt P33032); assay: cell-based or functional assay
[2] = target: human melanocortin receptor subtype 1 (hMC1-R) (human) (UniProt Q01726); assay: [125I]-NDP-α-MSH competition, membranes
[3] = target: human melanocortin receptor subtype 4 (hMC4-R) (human) (UniProt P32245); assay: [125I]-NDP-α-MSH competition, membranes
[4] = target: human melanocortin receptor subtype 3 (hMC3-R) (human) (UniProt P41968); assay: [125I]-NDP-α-MSH competition, membranes
[5] = target: human melanocortin receptor subtype 5 (hMC5-R) (human) (UniProt P33032); assay: [125I]-NDP-α-MSH competition, membranes
hMC3-R (human) [6] = target: hMC3-R (human) (UniProt P41968); assay: competition with [125I]-NDP-α-MSH, CHO-K1 membranes
hMC4-R (human) [7] = target: hMC4-R (human) (UniProt P32245); assay: as above
hMC1-R (human) [8] = target: hMC1-R (human) (UniProt Q01726); assay: as above
hMC5-R (human) [9] = target: hMC5-R (human) (UniProt P33032); assay: as above
hMC3-R (human) [10] = target: hMC3-R (human) (UniProt P41968); assay: cell-based or functional assay
hMC4-R (human) [11] = target: hMC4-R (human) (UniProt P32245); assay: cell-based or functional assay
hMC1-R (human) [12] = target: hMC1-R (human) (UniProt Q01726); assay: cell-based or functional assay
hMC1-R (human) [13] = target: hMC1-R (human) (UniProt Q01726); assay: ratio Ki hMC1-R / Ki hMC4-R, same assay

Sequence of hMC4-R (human) (P32245 whole entry): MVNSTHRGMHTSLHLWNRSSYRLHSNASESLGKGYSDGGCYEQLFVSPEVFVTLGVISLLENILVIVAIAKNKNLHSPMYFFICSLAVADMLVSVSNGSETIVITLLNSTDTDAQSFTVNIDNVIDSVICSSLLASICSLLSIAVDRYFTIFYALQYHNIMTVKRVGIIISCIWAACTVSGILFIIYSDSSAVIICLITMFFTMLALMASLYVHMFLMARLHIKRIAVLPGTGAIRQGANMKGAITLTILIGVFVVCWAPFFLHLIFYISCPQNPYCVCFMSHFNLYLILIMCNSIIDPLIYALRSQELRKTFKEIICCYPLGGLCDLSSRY
Sequence of human melanocortin receptor subtype 4 (hMC4-R) (human) (P32245 whole entry): as above
Sequence of human melanocortin receptor subtype 1 (hMC1-R) (human) (Q01726 whole entry): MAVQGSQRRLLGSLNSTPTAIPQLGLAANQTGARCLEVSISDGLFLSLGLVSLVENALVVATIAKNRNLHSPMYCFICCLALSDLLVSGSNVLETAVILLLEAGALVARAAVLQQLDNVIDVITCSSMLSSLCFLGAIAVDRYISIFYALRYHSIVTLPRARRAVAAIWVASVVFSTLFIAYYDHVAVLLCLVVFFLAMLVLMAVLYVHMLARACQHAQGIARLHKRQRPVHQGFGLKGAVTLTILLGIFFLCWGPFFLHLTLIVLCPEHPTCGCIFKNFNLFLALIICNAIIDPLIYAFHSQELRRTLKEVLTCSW
Sequence of hMC1-R (human) (Q01726 whole entry): as above
Sequence of hMC3-R (human) (P41968 whole entry): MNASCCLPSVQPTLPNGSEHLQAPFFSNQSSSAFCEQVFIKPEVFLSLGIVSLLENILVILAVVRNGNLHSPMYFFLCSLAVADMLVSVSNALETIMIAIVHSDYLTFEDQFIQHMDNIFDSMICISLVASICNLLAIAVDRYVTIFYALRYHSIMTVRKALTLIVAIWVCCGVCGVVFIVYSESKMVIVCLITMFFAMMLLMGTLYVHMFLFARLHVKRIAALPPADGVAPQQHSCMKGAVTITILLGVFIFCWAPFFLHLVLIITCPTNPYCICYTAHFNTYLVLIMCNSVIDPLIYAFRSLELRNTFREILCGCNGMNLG
Sequence of human melanocortin receptor subtype 3 (hMC3-R) (human) (P41968 whole entry): as above
Sequence of hMC5-R (human) (P33032 whole entry): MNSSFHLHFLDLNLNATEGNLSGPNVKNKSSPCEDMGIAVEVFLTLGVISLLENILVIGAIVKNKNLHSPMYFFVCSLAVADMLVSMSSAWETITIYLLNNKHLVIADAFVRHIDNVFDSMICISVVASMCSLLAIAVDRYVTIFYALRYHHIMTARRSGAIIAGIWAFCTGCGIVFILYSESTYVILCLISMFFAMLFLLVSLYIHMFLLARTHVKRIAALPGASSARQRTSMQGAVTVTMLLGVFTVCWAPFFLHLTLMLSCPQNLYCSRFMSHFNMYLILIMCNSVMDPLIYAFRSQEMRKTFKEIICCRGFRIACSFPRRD
Sequence of human melanocortin receptor subtype 5 (hMC5-R) (human) (P33032 whole entry): as above

Substance: Hydantoin(C(O)-(Gly-D-Arg))-c(Cys-Glu-His-D-Phe-Arg-Trp-Cys)-NH2 (peptide)
- cAMP EC50 (hMC5-R (human) [1]): 7440 nM
- Ki [2]: 4.3 nM
- Ki [3]: 1.77 nM
- Ki [4]: 78 nM
- Ki [5]: 4540 nM

Substance: Ac-hPhe-c(Asp-His-D-2-Nal-Arg-Trp-Gaba-Lys)-NH2 (peptide)
- Ki (hMC3-R (human) [6]): 2.45 nM
- Ki (hMC4-R (human) [7]): 0.931 nM
- Ki (hMC1-R (human) [8]): 0.461 nM

Substance: Hydantoin(C(O)-(D-Ala-Gly))-c(Cys-D-Ala-His-D-Phe-Arg-Trp-Cys)-NH2 (peptide)
- cAMP EC50 (hMC5-R (human) [1]): 355 nM
- Ki [2]: 11.7 nM
- Ki [3]: 4.28 nM
- Ki [5]: 34.7 nM

Substance: Ac-hCha-c(Asp-His-D-Phe-Arg-Trp-Gaba-Lys)-NH2 (peptide; unit assumed)
- cAMP EC50 (hMC3-R (human) [10]): 3.32 nM
- cAMP EC50 (hMC4-R (human) [11]): 7.24 nM
- cAMP EC50 (hMC1-R (human) [12]): 2.27 nM
- cAMP EC50 (hMC5-R (human) [1]): 415 nM

Substance: Ac-D-Arg-c(Asp-His-D-Phe-Arg-Trp-Ala-Lys)-NH2 (peptide; unit assumed)
- cAMP EC50 (hMC3-R (human) [10]): 5.76 nM
- cAMP EC50 (hMC4-R (human) [11]): 0.078 nM
- cAMP EC50 (hMC1-R (human) [12]): 1.48 nM
- cAMP EC50 (hMC5-R (human) [1]): 297 nM

Substance: Hydantoin(C(O)-(D-Arg-Gly))-c(Cys-Glu-His-D-Phe-Arg-Trp-Cys)-NH2 (peptide)
- cAMP EC50 (hMC5-R (human) [1]): 2710 nM
- Ki [2]: 9.49 nM
- Ki [3]: 2.95 nM
- Ki [4]: 124 nM
- Ki [5]: 2260 nM

Substance: Ac-Nle-c(Cys-D-Ala-His-D-2-Nal-Arg-Trp-Cys)-NH2 (peptide; unit assumed)
- cAMP Kb (hMC3-R (human) [10]): 12.4 nM
- cAMP Kb (hMC4-R (human) [11]): 38.8 nM
- cAMP EC50 (hMC1-R (human) [12]): 17.6 nM
- cAMP EC50 (hMC5-R (human) [1]): 11.8 nM

Substance: Ac-Nle-c(Cys-D-Ala-His-D-2-Nal-Arg-Bal-Cys)-NH2 (peptide)
- Ki (hMC3-R (human) [6]): 12.7 nM
- Ki (hMC4-R (human) [7]): 16.6 nM
- Ki (hMC1-R (human) [8]): 22.2 nM
- Ki (hMC5-R (human) [9]): 125 nM
- Ki hMC1-R/MC4-R (hMC1-R (human) [13]): 1.34

Substance: Ac-Nle-c(Asp-His-D-Phe-Arg-Trp-Gaba-Lys)-NH2 (peptide; unit assumed)
- cAMP EC50 (hMC3-R (human) [10]): 0.628 nM
- cAMP EC50 (hMC4-R (human) [11]): 0.131 nM
- cAMP EC50 (hMC1-R (human) [12]): 1.37 nM
- cAMP EC50 (hMC5-R (human) [1]): 3.48 nM

Substance: Hydantoin(C(O)-(D-Arg-Gly))-c(Cys-D-Ala-His-D-Phe-Arg-Trp-Cys)-NH2 (peptide)
- cAMP EC50 (hMC5-R (human) [1]): 3950 nM
- Ki [2]: 3.52 nM
- Ki [3]: 5.78 nM
- Ki [4]: 48.7 nM
- Ki [5]: 872 nM

Substance: Ac-Cha-c(Asp-His-D-2-Nal-Arg-Trp-Gaba-Lys)-NH2 (peptide; unit assumed)
- cAMP Kb (hMC3-R (human) [10]): 3.02 nM
- cAMP Kb (hMC4-R (human) [11]): 0.442 nM
- cAMP EC50 (hMC1-R (human) [12]): 1.27 nM
- cAMP EC50 (hMC5-R (human) [1]): 0.736 nM

Substance: D-Phe-c(Cys-His-D-(Et)Tyr-hArg-Trp-β-Ala-D-Cys)-Thr-NH2 (peptide)
- Ki (hMC3-R (human) [6]): 31.4 nM
- Ki (hMC4-R (human) [7]): 14.7 nM
- Ki (hMC1-R (human) [8]): 0.0567 nM
- Ki (hMC5-R (human) [9]): 9.27 nM
- Ki hMC1-R/MC4-R (hMC1-R (human) [13]): 0

Substance: Ac-Cha-c(Asp-His-D-2-Nal-Arg-Trp-Gaba-Lys)-NH2 (peptide)
- Ki (hMC3-R (human) [6]): 3.98 nM
- Ki (hMC4-R (human) [7]): 2.82 nM
- Ki (hMC1-R (human) [8]): 0.576 nM
- Ki (hMC5-R (human) [9]): 3.91 nM
- Ki hMC1-R/MC4-R (hMC1-R (human) [13]): 0.2

Substance: Ac-hPhe-c(Asp-His-D-2-Nal-Arg-Trp-Gaba-Lys)-NH2 (peptide; unit assumed)
- cAMP Kb (hMC3-R (human) [10]): 9.32 nM
- cAMP Kb (hMC4-R (human) [11]): 0.824 nM
- cAMP EC50 (hMC1-R (human) [12]): 0.413 nM
- cAMP EC50 (hMC5-R (human) [1]): 0.307 nM

Substance: Ac-Nle-c(Cys-D-Cha-His-D-Phe-Arg-Trp-Cys)-NH2 (peptide; unit assumed)
- cAMP EC50 (hMC3-R (human) [10]): 0.541 nM
- cAMP EC50 (hMC4-R (human) [11]): 0.453 nM
- cAMP EC50 (hMC1-R (human) [12]): 0.819 nM
- cAMP EC50 (hMC5-R (human) [1]): 45.3 nM

Next, values leading:

- Ki (hMC3-R (human) [6]): 151 nM
- Ki (hMC1-R (human) [8]): 21.1 nM
- Ki (hMC5-R (human) [9]): 92.6 nM
Substance: Ac-Nle-c(Cys-3-Pal-D-Phe-Arg-Trp-Gaba-Cys)-NH2 (peptide)

- Ki (hMC1-R (human) [8]): 0.648 nM
Substance: Ac-Nle-c(Asp-His-D-2-Nal-Arg-Trp-β-Ala-Lys)-NH2 (peptide)

- Ki (hMC5-R (human) [9]): 352 nM
Substance: Ac-D-Arg-c(Cys-D-Ala-His-D-Phe-Arg-Trp-Cys)-NH2 (peptide)

- cAMP EC50 (hMC3-R (human) [10]): 0.145 nM
- cAMP EC50 (hMC4-R (human) [11]): 0.128 nM
- cAMP EC50 (hMC1-R (human) [12]): 0.834 nM
- cAMP EC50 (hMC5-R (human) [1]): 2.79 nM
Substance: Ac-Nle-c(Asp-His-D-Phe-Arg-Trp-β-Ala-Lys)-NH2 (peptide; unit assumed)

- cAMP Kb (hMC3-R (human) [10]): 5.72 nM
- cAMP Kb (hMC4-R (human) [11]): 1.58 nM
- cAMP EC50 (hMC1-R (human) [12]): 193 nM
- cAMP EC50 (hMC5-R (human) [1]): 1110 nM
Substance: Ac-Arg-c(Cys-D-Ala-His-D-2-Nal-Arg-Trp-Cys)-NH2 (peptide; unit assumed)

- Ki [2]: 16 nM
- Ki [4]: 63.9 nM
- Ki [5]: 1820 nM
Substance: Hydantoin(C(O)-(D-Ala-Nle))-c(Cys-D-Ala-His-D-Phe-Arg-Trp-Cys)-NH2 (peptide)

- cAMP EC50 (hMC3-R (human) [10]): 6.11 nM
- cAMP EC50 (hMC4-R (human) [11]): 0.275 nM
- cAMP EC50 (hMC1-R (human) [12]): 9.66 nM
- cAMP EC50 (hMC5-R (human) [1]): 1730 nM
Substance: Ac-2-Nal-Arg-c(Cys-D-Ala-His-D-Phe-Arg-Trp-Cys)-NH2 (peptide; unit assumed)

- cAMP EC50 (hMC3-R (human) [10]): 0.189 nM
- cAMP EC50 (hMC4-R (human) [11]): 0.0949 nM
- cAMP EC50 (hMC1-R (human) [12]): 3.26 nM
- cAMP EC50 (hMC5-R (human) [1]): 30.2 nM
Substance: Ac-Cha-c(Asp-His-D-Phe-Arg-Trp-Gaba-Lys)-NH2 (peptide; unit assumed)

- Ki (hMC3-R (human) [6]): 13.3 nM
- Ki (hMC1-R (human) [8]): 8.29 nM
- Ki (hMC5-R (human) [9]): 816 nM
Substance: Ac-D-Arg-c(Cys-D-Ala-His-D-Phe-Arg-Trp-Pen)-NH2 (peptide)
